This is an account of results in publication PMC2734247, “The Chlamydia Type III Secretion System C-ring Engages a Chaperone-Effector Protein Complex” (PLoS Pathogens, 2009).

Data set [1] deals with Cap1-6xHis (aa 1-298) (C. trachomatis serovar D). Put plainly: SEC; proteins eluted from Ni2+-NTA (complexes formed by co-expression in E. coli) on a 16/60 Sephacryl S-100 HR column; 10 mM Tris-HCl/50 mM phosphate buffer/150 mM NaCl pH 8.0; sizes by a low molecular weight calibration kit.
Data set [2] deals with the molecule itself. Put plainly: cross-linking; purified 6xHis-Mcsc treated with 0.25-1 mM DSP for 20 min at 4 C; SDS-PAGE with or without 50 mM DTT; immunoblot with Mcsc antibodies.
The target in data set [3] is T1, Ct618-6xHis (aa 1-189) (C. trachomatis serovar D, UniProt O84623 1-189).
T1 construct: Ct618 of C. trachomatis, amino-terminal domain, aa 1-189; printed as Ct618-6xHis; also called 6xHis-tagged Ct618; amino-terminal domain of Ct618; source: E. coli BL21 DE3 (bicistronic pET-24d with Mcsc), in lysate; purified (Ni2+-NTA agarose, gel filtration)
T1 sequence: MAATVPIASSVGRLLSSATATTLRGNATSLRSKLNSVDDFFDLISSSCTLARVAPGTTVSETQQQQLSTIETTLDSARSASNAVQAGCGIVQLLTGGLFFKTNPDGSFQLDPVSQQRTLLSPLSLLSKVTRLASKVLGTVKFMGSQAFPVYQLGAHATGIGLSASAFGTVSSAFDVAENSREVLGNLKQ
Nature of the data set: SEC; proteins eluted from Ni2+-NTA (complexes formed by co-expression in E. coli) on a 16/60 Sephacryl S-100 HR column; 10 mM Tris-HCl/50 mM phosphate buffer/150 mM NaCl pH 8.0; sizes by a low molecular weight calibration kit. The settings on record: both partners purified.

“Mcsc, untagged, co-expressed from a bicistronic vector (from UniProt O84262 1-163) (natural protein)”: in data set [1], the stoichiometry N (Mcsc subunits per effector protein) came to 2.

B1: 6xHis-Mcsc (natural protein)
chain: MTTWTLNHNNLTKFLTHAQLEPSLERESGLIYITVPAGEHELPLFFVIRNEGEVLQLVCYFPYQIQQNQRDTTARLLHLVNRDIDIPGFGMDEEQNIIFYRLVIPCLKGEINEDLLRVYIDTIKLICDSFFHAIGLISTGNMDLDELKKQAKLENNQSDQLEP
notes: Ct260 (Mcsc) of C. trachomatis, amplified from serovar D genomic DNA; printed as 6xHis-Mcsc, vector pET15b; also called hexahistidine-tagged Mcsc (Ct260); 6xHis-tagged Mcsc dimers; source: E. coli BL21 DE3 (pET15b-Mcsc), purified (Ni2+-NTA agarose, gel filtration)
Regarding B1, the “stoichiometry N” value in data set [2] came out at 2.

B2: Mcsc, untagged, co-expressed from a bicistronic vector (natural protein)
chain: MTTWTLNHNNLTKFLTHAQLEPSLERESGLIYITVPAGEHELPLFFVIRNEGEVLQLVCYFPYQIQQNQRDTTARLLHLVNRDIDIPGFGMDEEQNIIFYRLVIPCLKGEINEDLLRVYIDTIKLICDSFFHAIGLISTGNMDLDELKKQAKLENNQSDQLEP
notes: Ct260 (Mcsc) of C. trachomatis, amplified from serovar D genomic DNA; also called untagged Mcsc; Ct260; source: E. coli BL21 DE3 (bicistronic pET-24d), in lysate; co-purified with the 6xHis-tagged effector (Ni2+-NTA agarose, gel filtration)
For the molecule B2, the “stoichiometry N” value in data set [3] is 2 Mcsc subunits per effector protein.
